Reference: the nanobody polyreactivity screen of Harvey et al. (2022)

Assay: yeast display, Sf9 membrane polyspecificity reagent, FACS + sequencing; frameworks hold sequencing errors
Outline: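 A synthetic nanobody library was expressed on Saccharomyces cerevisiae BJ5465 by galactose induction for 36–48 hours. The library was stained for 1 hour at 4 °C with 10% biotinylated, detergent-solubilized Sf9 membrane reagent and enriched with streptavidin microbeads before FACS. Low and high (top ~1%) gates were set on anti-HA fluorescence for expression and streptavidin fluorescence for reagent binding, and each polyreactivity label reflects the gate of origin.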

**Q.** With “QVQLVESGGGLVQAGGSLRLSCAASGSIFDANAIGWYRQAPGKERELVAAIDSGDITNYADSVKGRFTISRDNAKNTVYLQMNSLKPEDTAVYYCAAEWHYIYAYDYWGQGTQVTVSS” as the sequence, how does the “polyreactivity (PSR sort gate)” value read?
**A.** low polyreactivity

**Q.** Which “polyreactivity (PSR sort gate)” value does the source give for “QVQLVESGGGLDQAGGSLRLSCAASGRTLYRYAMGWYRQSPGKERELVAAIRSGGRTNYADSVKGRFTISRDNAKNTVYLQLNSLKPEDTAVYYCAARTLRYPSTYDYWGQGTQVTVSS” here?
**A.** high polyreactivity

**Q.** With “QVQLVESGGGLVQAGGSLSLSCAASGRTFVPYAMGWYRQAPGKERELVADITDGDGSTYADSVKGRFTISRDNAKNTVYLQMNSLKPEYTAVYYCAAQSRRLVTRWPVTFGYWGQGTQVTVSS” as the sequence, how does the “polyreactivity (PSR sort gate)” value read?
**A.** low polyreactivity

**Q.** With “QVQLVESAVGLVQAGVSLRLSSAASGFIYYAYALGWYRQAPGKERELVAGISDSGASTYADSVKGRFTISRDNAKNTVYLQMNSLKPEDTAVYYCATTGYLSTKDYDEYGYWGQGTQVTVSS” as the sequence, how does the “polyreactivity (PSR sort gate)” value read?
**A.** low polyreactivity

**Q.** For “QVQLVESGGGLVQAGGSLRLSCAASGSMFYFYAMGWYRQAPGKERELVAAISWCDGDTYYADSVKGRFTISRDNAKNTVYLQMNSLKPEDSAVYYCAAEGLTRYYQYDYWGQGTQVTVSS”, which “polyreactivity (PSR sort gate)” value is on record?
**A.** high polyreactivity

**Q.** For “QVQLVESGGGLVQAGGSLRLSCAASGFNFIDYAMGWYRQAPGKERELVAAITSSGGRTYYADSVKGRFTISRDNAKITVYLQMTSLKPEDTAVYYCAARLPGYVRIYDYWGQGTQVTVSS”, which “polyreactivity (PSR sort gate)” value is on record?
**A.** high polyreactivity

**Q.** For “QVQLVESGGGLVQAGGSLRLSCAASGSTLTWNAMGWYRQAPGKERELVATISYSGSSTYYADSVKGRFTISRDNAKNSVYLQMFSLKPEDTAGYYCNAQELAYGHGFDSWGLGTQVTVSS”, which “polyreactivity (PSR sort gate)” value is on record?
**A.** low polyreactivity

**Q.** For “QVQLVESGGGLVQAGGSLRLSFAASGFIIGRNAMGWYRQAPGKEREMVAAITSGGNTYYADSVKGRFTISRDNAKNTVYLQMNSLKPEDTAVYYCAARRRYPLVDAGYYWGQGTQVTVSS”, which “polyreactivity (PSR sort gate)” value is on record?
**A.** high polyreactivity

**Q.** With “QVQLVESGGGLVQSGRSLRLSCAASGSISVWYVMGWYRPAPGKEMELVAAITRSGGSTFYAYSVKGRFTISRDNAKNTVYLQMNSLKPEDTAVYYCAADGGVAWGYGYWGQGTQVTVSS” as the sequence, how does the “polyreactivity (PSR sort gate)” value read?
**A.** low polyreactivity

**Q.** Which “polyreactivity (PSR sort gate)” value does the source give for “QVQLVESVGGLVQAGGCLRITCAASGSTSDANAMGWYRTATGKERELVAAITTGGSTNYADSVKGRFTISRDNAKNTVFLQMNSLKPEDTAVFYCAVDLLRMTGDRGHDYWGQGTQVTVSS” here?
**A.** low polyreactivity

**Q.** With “QVQLVESGGGLVQAGGSHRLSCAASGSIFRWYAMGWYRQAPGKERELVAAITSGGGTNYADSVKGRFTISRDNAKNTVYIQMNCLKPEDTAVYYCNAAAWLRWGYRGGFWRYDYWGQGTQVTVSS” as the sequence, how does the “polyreactivity (PSR sort gate)” value read?
**A.** high polyreactivity

**Q.** For “QVQLVESGGGLVQAGVSIRLSCAASGSIYENNAMGRYRQAPGKERELVAGITWSGGSTRYADSVKGRFTISRDNAKNTVYLQMNSLKPEDTAVYYCATDDFTYVVAKDGDYWGQGTQVTVSS”, which “polyreactivity (PSR sort gate)” value is on record?
**A.** low polyreactivity

**Q.** For “QVQLVESGGGLVQAGGSLRLSCPASGFTFVRYAMGWYRQAPGKERELVAAISSSGSSTYYADSVKGRFTISRDNAKYTVYLQMNSLKPEDSAVYYCNARAGRGEDYWGQGTQVTVSS”, which “polyreactivity (PSR sort gate)” value is on record?
**A.** low polyreactivity

**Q.** Which “polyreactivity (PSR sort gate)” value does the source give for “QVQLVESGGGLVQAGGSLRLSCAASGITFRVYVMGWYRQAPGKERELVAAITRSGGRTYYADSVKGRFTISRDNAKNTVYLQMNSLKPEDTAVYYCAAEYDVYGIYEYDYWGQGTQVTVSS” here?
**A.** high polyreactivity

**Q.** With “QVQLVESGGGLVQAGGSLSLSCAASGRIFYVNTMGWYRQAPGKERELVATISSAASTNYADSVKGRFTISRDNAKNTVYLQMNSLKPEDTAVYYCNAAFYKEYYYWGQGTQVTVSS” as the sequence, how does the “polyreactivity (PSR sort gate)” value read?
**A.** low polyreactivity

**Q.** Which “polyreactivity (PSR sort gate)” value does the source give for “QVQLVESGGGLVQAGGSLRLSCAASGRIFVIYAMGWYRQAPGKERELVAVISSDGSTYYADSVKGRFTISRDNAKNTVYLQMNSLKPEDTAVYYCAADRIGRYRPYIGWVVRSYYWGQGTQVTVSS” here?
**A.** low polyreactivity

**Q.** Which “polyreactivity (PSR sort gate)” value does the source give for “QVQLVESGGGLVQAGGSLRLSCAASGFTFVSYAMGWYRQAPGKERELVASITWTGGSTYYADSVKGRFTISRDYAKNTVYLQMNSLKPEDTAVYYCAAQQFYSGILGRYYWGQGTQVTVSS” here?
**A.** low polyreactivity

**Q.** For “QVQLVESGGGLVQAGGSLRLSCAASGRIFSRNALGWYRQAPGKERELVAAISWRGGRTYYAVSVKGRFAISRDNAKNTVYLQMNSLKPEDTAVYYCNAVSFGRARHGGPVYGYDYWGQGTQVTVSS”, which “polyreactivity (PSR sort gate)” value is on record?
**A.** high polyreactivity

**Q.** With “QLQLVESGGGLVKAGGSLRLSCAASGSTFGGNAMGWYRQAPGKERELVASISSSGGRTYYADSVKGRFTISRDNAKNTVYLQMNSLTPEDTAVYYCARRYYYQYRYDYWGQGTQVTVSS” as the sequence, how does the “polyreactivity (PSR sort gate)” value read?
**A.** high polyreactivity

**Q.** With “QVQLVESGGGLVQAGGSLRLTCAASGRIFAYYAMGWSRQAPGKERELVAAISSGGTTNYADSVKGRFTISRDNAKNTVYLQLTSLKPEDTAVYYCNADGWRRSRQYYYWGQGTQVTVSS” as the sequence, how does the “polyreactivity (PSR sort gate)” value read?
**A.** low polyreactivity

**Q.** With “QVQLVESGGGLVQAGGSLRLSCAASGFTLGTYAMGWYRQAPGKERELVAAISRGGGITYYADSVKGRFTISRDNAKNTVYLQMISLKPEDTAVYDCAADWRYWRWAFDYWGQGTQVTVSS” as the sequence, how does the “polyreactivity (PSR sort gate)” value read?
**A.** high polyreactivity

**Q.** With “QVQLVESGGGLVQAGGSLRLSCAASGSIFFYAMGWYRQAPGKERELVADITYTGGSKYADSVKGRFTISRDYAKNTVYLQMNSLKPEDTAVYYCAKLDGGLFDYWGQGTQVTVSS” as the sequence, how does the “polyreactivity (PSR sort gate)” value read?
**A.** low polyreactivity

**Q.** For “QVQLVESGGGLVQAGGSLRLSCAASGIIFYRNTMGWYRQAPGKERELVAAIRRGGNTYYADSVKGRFTISRDNAKNTVYLQMNSLKPEDTAVYYCAAEDYNGRQYYHKMDYWGQGTQVTVSS”, which “polyreactivity (PSR sort gate)” value is on record?
**A.** high polyreactivity

**Q.** With “QVQLVESGGGLVQAGGSLRLSCAASGLTISTYAMGWYIQAPGKDRELVATITYSGSSTYADSVKGRFTISRDNAKNTVYLQMNSLKPEDTAVYYCAAFTYHGNPSEYYPDTVGFYYWGQGTQVSVSS” as the sequence, how does the “polyreactivity (PSR sort gate)” value read?
**A.** low polyreactivity

**Q.** Which “polyreactivity (PSR sort gate)” value does the source give for “QVQLVESGGGLVQPGGSLRLRCAASGSTLAYYTMGWSRHAPGKEMELVAAISGSGGSTYYADSVKGRFTIARDNAKNTVYLQMNSLKPEDSAVYYSIAVLYYYTSSEYDYWGQGTQVTVSS” here?
**A.** high polyreactivity

**Q.** With “QVQLVESGGGLVQAGGSLRLSCAASGFTFHNNVMGWYRQAPGKERELVATISKSGGSTYYADSVKGRFTISRDNAKNTVYLQMNSLKPEDTAVYYCARRYRDYGRYGYWGQGTQVTVSS” as the sequence, how does the “polyreactivity (PSR sort gate)” value read?
**A.** high polyreactivity

**Q.** With “QVQLVESGGGLVQAGGSLRLSCAASGFIFRHNAMVWYRQAPGKERELVAAITKRGGDTYYADSVKGRFTISRDNAKNTVYLQMISLKPEDTAVYYCNVDVRYPKYYYWGQGTQVTVSS” as the sequence, how does the “polyreactivity (PSR sort gate)” value read?
**A.** low polyreactivity

**Q.** With “QVQLVESGGGLDQARGSLRLSCAASGGIFDHNAMGWYRQAPGKEREFVAAITWSGGGTYYADSVKGRFTISRDNAKNTVYLQMNSLKPEDTAVYYCAATVYGIYYYGKDRYDYWGQGTQVTVSS” as the sequence, how does the “polyreactivity (PSR sort gate)” value read?
**A.** low polyreactivity

**Q.** With “QVQLVESGGGLVQAGGSLRLSCAASGLTFGRYAMGWYRQAPGKERELVAAITARVGRTYYADSVKGRFTISRDNAKNTVYLQMNSLKPEDTAVYYCAAGPSYYWYSHEKYDYWGQGTQVTVSS” as the sequence, how does the “polyreactivity (PSR sort gate)” value read?
**A.** high polyreactivity

**Q.** For “QVQLVESGGGLVQAGGSLRLSCAASGYIFSVYAMGWYRQAPGKERELVAAISSGGSTYYADSVKGRFTISRDNAKNTVYLQMNSLKPEDTAVYYCAAESEYVYWYYVDYDYWGQGTQVTVSS”, which “polyreactivity (PSR sort gate)” value is on record?
**A.** high polyreactivity

**Q.** Which “polyreactivity (PSR sort gate)” value does the source give for “QVQLVESGGGLVQAGGSLRLSCAASGRIFPISAMGWYRQAPGKERVLVAAIDSGGSTTYADSVKGRFTISRDNEKNTVYLQMNSLKPEDSADYYCAAKGAYPYWYPVGYRYDYWGQGTQVTVSS” here?
**A.** low polyreactivity
